For this experiment, the target named is RBD derived from the Omicron strain (BA.1 strain; B.1.1.529) (SARS-CoV-2).

A value given as a limit tells only on which side of the number the result lay.

In the case of ADG2 (antibody), the binding inhibition rate (%) is below 80%.
Turning to AZD1061 (antibody), the binding inhibition rate (%) was below 80%.
In the case of AZD8895 (antibody), the binding inhibition rate (%) is below 80%.
LY_CoV16 (antibody) yielded a binding inhibition rate (%) below 80%.
Substance LY_CoV555 (antibody) gave a binding inhibition rate (%) below 80%.
The substance REGN10933 (antibody) had a binding inhibition rate (%) below 80%.
Substance REGN10987 (antibody) returned a binding inhibition rate (%) below 80%.
The substance S309 (antibody) gave a binding inhibition rate (%) below 80%.
